Measured values published in patent US20230130737A1.

Key:
[1] = molecular target: trifunctional high FHR4-valence heteromultimer multi-FHR4.C4bpα.His/multi-2D3 VHH anti-Her2.C4bpα.FLAG/mono-eGFP.C4bpβ (human) (UniProt Q92496); assay: SPR (Biacore); FH multimer immobilised via Ni2+/NTA, C3b dose series with about 20 µg/ml Factor B as analyte
[2] = molecular target: trifunctional high FHR4-valence heteromultimer multi-FHR4.C4bpα.His/multi-2D3 VHH anti-Her2.C4bpα.FLAG/mono-eGFP.C4bpβ (human) (UniProt Q92496); assay: SPR (Biacore); affinity with factor B against C3b alone
[3] = molecular target: trifunctional high FHR4-valence heteromultimer multi-FHR4.C4bpα.His/multi-2D3 VHH anti-Her2.C4bpα.FLAG/mono-eGFP.C4bpβ (human) (UniProt Q92496); assay: SPR (Biacore); bound RU with factor B against C3b alone
[4] = molecular target: trifunctional high FHR4-valence heteromultimer multi-FHR4.C4bpα.His/multi-2D3 VHH anti-Her2.C4bpα.FLAG/mono-eGFP.C4bpβ (human) (UniProt Q92496); assay: SPR (Biacore); FH multimer immobilised via Ni2+/NTA, C3b dose series as analyte

Chain of trifunctional high FHR4-valence heteromultimer multi-FHR4.C4bpα.His/multi-2D3 VHH anti-Her2.C4bpα.FLAG/mono-eGFP.C4bpβ (human) (Q92496 other isoform, or with tags, fused parts or gaps, chain 1 of 3): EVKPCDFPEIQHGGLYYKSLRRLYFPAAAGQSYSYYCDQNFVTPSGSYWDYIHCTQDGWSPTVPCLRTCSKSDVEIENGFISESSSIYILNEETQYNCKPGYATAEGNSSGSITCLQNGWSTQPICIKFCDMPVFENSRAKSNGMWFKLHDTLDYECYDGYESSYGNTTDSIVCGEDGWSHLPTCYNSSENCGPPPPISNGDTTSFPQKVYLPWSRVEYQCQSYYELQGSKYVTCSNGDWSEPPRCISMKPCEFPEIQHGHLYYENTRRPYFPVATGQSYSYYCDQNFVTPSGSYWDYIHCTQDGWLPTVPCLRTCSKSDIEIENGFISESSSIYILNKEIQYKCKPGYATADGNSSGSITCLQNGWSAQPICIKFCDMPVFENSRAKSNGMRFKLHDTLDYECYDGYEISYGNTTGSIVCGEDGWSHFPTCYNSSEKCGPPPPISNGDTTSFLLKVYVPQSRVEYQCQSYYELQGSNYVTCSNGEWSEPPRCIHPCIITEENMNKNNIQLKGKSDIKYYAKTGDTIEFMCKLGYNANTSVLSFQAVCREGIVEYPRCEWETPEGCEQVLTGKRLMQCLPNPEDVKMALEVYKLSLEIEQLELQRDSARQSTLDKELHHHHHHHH
Chain of trifunctional high FHR4-valence heteromultimer multi-FHR4.C4bpα.His/multi-2D3 VHH anti-Her2.C4bpα.FLAG/mono-eGFP.C4bpβ (human) (P04003 540-597, chain 2 of 3, further chain): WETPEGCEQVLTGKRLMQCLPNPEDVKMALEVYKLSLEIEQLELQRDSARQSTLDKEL
Chain of trifunctional high FHR4-valence heteromultimer multi-FHR4.C4bpα.His/multi-2D3 VHH anti-Her2.C4bpα.FLAG/mono-eGFP.C4bpβ (human) (P20851 137-252, chain 3 of 3, further chain): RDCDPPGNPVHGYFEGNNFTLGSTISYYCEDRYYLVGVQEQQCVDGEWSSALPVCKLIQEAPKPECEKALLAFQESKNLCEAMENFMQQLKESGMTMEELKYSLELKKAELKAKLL

Row | Kd [1] | increase of binding affinity against C3b alone [2] | enhancement factor of bound C3b against C3b alone [3] | Kd [4] | Substance
1 | 8.73 nM | 2 logs | 5 fold |  | C3b in the presence of Factor B (about 20 µg/ml) (from UniProt P01024 23-1663; P00751 26-764)
2 |  |  |  | 952 nM | C3b (from UniProt P01024 749-1663)
